Earlier results, collected in PMC8512968.

Target: band 3 cytoplasmic domain (Homo sapiens) (UniProt P02730)
Test: sedimentation equilibrium AUC

Kd: 2.8 µM
Substance: band 3 cytoplasmic domain (from UniProt P02730)
